Protein stability index data for 73 sequences are collected here from the supplement of paper PMC10567573.

The nature of the series: protein stability index of a GFP-peptide fusion (GPS, HEK-293T) (PSI 1-6); higher = more stable. Conditions: c terminus: a fixed tail appended.

± gives the standard deviation.
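Further: 24-mer peptide tiles fused after GFP, lentivirally expressed, FACS-sorted into six equal bins by GFP/DsRed ratio, decoded by Illumina sequencing, PSI is the read-weighted mean bin number.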

Take SPADYLRFQDLVLRMLEYEPAARI [DYRK1B]: the protein stability index (treatment: DMSO) is 2.56 ± 0.35 and the protein stability index (treatment: MLN4924 1 uM, 8 h) amounted to 2.43 ± 0.33.

As to LHVAARYGHELLINTLITSGADTA [ANKRD44], the protein stability index (treatment: DMSO) amounted to 2.52 ± 0.28 and the protein stability index (treatment: MLN4924 1 uM, 8 h) is 2.44 ± 0.72.

NDKMAEYTNSAGVPSLNAALMHTL [GOSR1]: the protein stability index runs as follows: (treatment: DMSO) 3.44 ± 0.32; (treatment: MLN4924 1 uM, 8 h) 3.42 ± 0.23. Take RNGSERVVTSAREHIYDLRSLENY [CLINT1]: the protein stability index runs as follows: (treatment: DMSO) 3.5 ± 0.16; (treatment: MLN4924 1 uM, 8 h) 3.81 ± 0.25. The matching figures for MEEVISPRQVSYTPQHHEKQYAMQ [IQUB]: 4.38 ± 0.15 and 4.31 ± 0.29. The matching figures for YFFCENDAEFLCVFCREGPTHQAH [TRIM15]: 2.26 ± 0.35 and 2.33 ± 0.54.

The sequence PTWIIDPIDGTTNFVHRFPFVAVS [IMPA1] gave a protein stability index (treatment: DMSO) of 2.36 ± 0.22 and a protein stability index (treatment: MLN4924 1 uM, 8 h) of 2.25 ± 0.25. The matching figures for HLESKDINQEELRALEEVEMKLQK [C10orf62]: 5.31 ± 0.32 and 5.34 ± 0.24. The matching figures for QLTCFSITCSSTMSYSCCLPSLGC [KRT34]: 3.04 ± 0.58 and 2.65 ± 0.35. The matching figures for IYAMKILRKSDMLEKEQVAHIRAE [STK38L]: 2.33 ± 0.26 and 2.48 ± 0.22.

Consider KIIFRVGLVLLKHALGSPEKVKAC [TBC1D10A], for which the protein stability index by setting is: (treatment: DMSO) 2.77 ± 0.43; (treatment: MLN4924 1 uM, 8 h) 2.76 ± 0.19.

On to PVSDTPDEGDEPMPIPEDLSTTSG [IKZF1], for which the protein stability index was determined as 5.75 ± 0.25 (treatment: DMSO) and 5.66 ± 0.3 (treatment: MLN4924 1 uM, 8 h). The matching figures for AERYKLERLAEAEKSQLIMQAEAE [FLOT1]: 5.29 ± 0.25 and 5 ± 0.28. Consider VGSDDLERIEARLATLEGDDPSLR [PSD2], for which the protein stability index runs as follows: (treatment: DMSO) 5.32 ± 0.17; (treatment: MLN4924 1 uM, 8 h) 5.42 ± 0.17. Consider HDSVVEMIRKGGDQTSLLVVDKET [PDZK1], for which, where the note is “treatment: MLN4924 1 uM, 8 h”, the protein stability index was found to be 4.76 ± 0.33. Regarding SAENGLEKSGFSQHQNKSPPKVKA [DLC1], the protein stability index worked out at 5.14 ± 0.44 (treatment: DMSO) and 5.1 ± 0.45 (treatment: MLN4924 1 uM, 8 h). The matching figures for ENSGILQGKLIKRQRLAKNDRGDH [EFHC1]: 3.85 ± 0.32 and 4.37 ± 0.11. The matching figures for FSDLQVYSYRRLGEEALSLQALDP [SLC22A15]: 2.73 ± 0.34 and 2.84 ± 0.31. The sequence TKKKGVKRPARLHTKPSQAPAVEV [NOP53] gave a protein stability index (treatment: DMSO) of 4.36 ± 0.2 and a protein stability index (treatment: MLN4924 1 uM, 8 h) of 4.411 ± 0.021. The matching figures for SDLKDDDAVPPGMESLISAPLVKT [CDC25B]: 5.21 ± 0.28 and 5.17 ± 0.43. Take NVFKELQIMQGLEHPFLVNLWYSF [STK32A]: the protein stability index worked out at 2.74 ± 0.55 (treatment: DMSO) and 2.49 ± 0.53 (treatment: MLN4924 1 uM, 8 h).

As for GGPADLAGLEDEDVIIEVNGVNVL [PDZK1], the protein stability index (treatment: MLN4924 1 uM, 8 h) was found to be 4.46 ± 0.32. Turning to HTPAGAAVSAMKCGLLPISPEALS [ADD1], the protein stability index was found to be 3.13 ± 0.25 (treatment: DMSO) and 3.29 ± 0.32 (treatment: MLN4924 1 uM, 8 h).

For GNLEVGEPQSEPVRVLDMVAKLES [FBXO34], the protein stability index turned out to be 5.01 ± 0.34 (treatment: DMSO) and 4.87 ± 0.2 (treatment: MLN4924 1 uM, 8 h). As for FDPAEKYKMDHRRRGIALIFNHER [CASP6], the protein stability index (treatment: DMSO) turned out to be 2.89 ± 0.2 and the protein stability index (treatment: MLN4924 1 uM, 8 h) turned out to be 3.19 ± 0.39. The matching figures for INGLQAWLLTHLLWFANAHLLSWF [DHCR7]: 3.18 ± 0.3 and 3.07 ± 0.44. The matching figures for CAFSRTLPWSSVLRVWDMFFCEGV [TBC1D10A]: 2.85 ± 0.42 and 2.94 ± 0.49. The matching figures for LRGQVGGEINVEMDAAPGVDLSRI [KRT17]: 3.97 ± 0.15 and 3.92 ± 0.16.

Consider AIGVGQVDFNTLKSIGSEPHEDHV [MATN2], for which the protein stability index runs as follows: (treatment: DMSO) 4.67 ± 0.24; (treatment: MLN4924 1 uM, 8 h) 4.88 ± 0.054. Consider KALTTLCDLADRELVVIIGWAKHI [ESRRG], for which the protein stability index runs as follows: (treatment: DMSO) 2.83 ± 0.38; (treatment: MLN4924 1 uM, 8 h) 2.79 ± 0.62. Regarding QKGIPPSLRGRAWQYLSGGKVKLQ [TBC1D10A], the protein stability index was determined as 2.8 ± 0.13 (treatment: DMSO) and 3 ± 0.21 (treatment: MLN4924 1 uM, 8 h).

Turning to HTGEPLFSGSNEVDQMNRIVEVLG [DYRK1B], the protein stability index runs as follows: (treatment: DMSO) 3.59 ± 0.21; (treatment: MLN4924 1 uM, 8 h) 3.57 ± 0.25. In the case of DAGEVSYLPRDFSTYRPLPDPSVW [MYORG], the protein stability index reads like this: (treatment: DMSO) 3.29 ± 0.17; (treatment: MLN4924 1 uM, 8 h) 3.27 ± 0.38. The matching figures for GGTPIRGALQIEQSEESDQGKYEC [PTPRD]: 5.57 ± 0.38 and 5.4 ± 0.31. The matching figures for SDKEIVAEAERLDVKAMGPLVLTE [EIF5]: 5.08 ± 0.054 and 5.23 ± 0.31. The matching figures for DLLLWIQKHTEVETVDLVLKLKNK [DENND6A]: 2.57 ± 0.63 and 2.21 ± 0.45. In the case of SQVALKIIRNVGKYREAARLEINV [CLK3], the protein stability index stood at 2.67 ± 0.51 (treatment: DMSO) and 2.62 ± 0.54 (treatment: MLN4924 1 uM, 8 h). The matching figures for RCRPRSLIDYKSYMDTKLLVARFL [FAM189A2]: 2.42 ± 0.11 and 2.3 ± 0.3. The matching figures for ESLIVFMEQVHRGIKGLVRDSHGK [CPXM2]: 2.26 ± 0.58 and 2.13 ± 0.76. Regarding QGNGLFYSSGPQSWYPKANNQDFI [ZC2HC1C], the protein stability index reads like this: (treatment: DMSO) 2.6 ± 0.16; (treatment: MLN4924 1 uM, 8 h) 2.85 ± 0.051. As to DQTTSEETVGGAILDQTTSEDAVG [HDAC6], the protein stability index runs as follows: (treatment: DMSO) 5.54 ± 0.2; (treatment: MLN4924 1 uM, 8 h) 5.54 ± 0.26. Turning to RLLRFSSQIHNNGQSDFRPKNGRH [LOXL2], the protein stability index was found to be 3.2 ± 0.41 (treatment: DMSO) and 3.42 ± 0.81 (treatment: MLN4924 1 uM, 8 h).

EEPQTVPEARSRDATPPVSPINME [JUNB] had a protein stability index (treatment: DMSO) of 5.38 ± 0.29 and a protein stability index (treatment: MLN4924 1 uM, 8 h) of 5.46 ± 0.27. The matching figures for SRSLLTGGYNLASVSVWDLAAPSL [TLE6]: 2.38 ± 0.27 and 2.29 ± 0.14. Regarding EEWNALQSVENCPEDLAQLEELID [RPAIN], the protein stability index (treatment: DMSO) came to 5.14 ± 0.29 and the protein stability index (treatment: MLN4924 1 uM, 8 h) stood at 5.29 ± 0.26. The matching figures for SPDDPESVKIIFKLPNDSRVERRF [FAF2]: 3.36 ± 0.23 and 3.46 ± 0.24. The matching figures for TSPTRQHHVEREKDHSSSRPSSPR [BTBD10]: 5.38 ± 0.12 and 5.45 ± 0.092. For SFPLWYEEALKDEEERAQDRIATT [MAGEA10], the protein stability index by setting is: (treatment: DMSO) 4.71 ± 0.19; (treatment: MLN4924 1 uM, 8 h) 4.5 ± 0.27. The matching figures for CLSFQPECSMKLTPLVLEVFGNEI [VDR]: 2.27 ± 0.38 and 2.52 ± 0.19. The matching figures for SLGLDHCHSFISGTAPLNQETAEF [ACSBG2]: 4.18 ± 0.21 and 4.06 ± 0.16. The matching figures for ERIVVAGNNEDVSFSRPADLDLIQ [MFF]: 4.96 ± 0.075 and 4.21 ± 0.32. KSRRSRSESETSTMAAKKNRQSSD [C18orf25] gave a protein stability index (treatment: DMSO) of 5.47 ± 0.15 and a protein stability index (treatment: MLN4924 1 uM, 8 h) of 5.53 ± 0.25. The matching figures for EGSIWRGAQMEKEWARALETRDWG [ZSWIM9]: 3.37 ± 0.3 and 3.42 ± 0.21. The matching figures for TTKFTGSHKERFDPSGKGKGKAGR [TPPP]: 4.83 ± 0.2 and 4.93 ± 0.32. The matching figures for KAQAKVGSLDNAHHVPGGGNVKID [MAP2]: 4.85 ± 0.12 and 4.87 ± 0.34. As to PISQEKIESERALISQCGKPVVNV [DUSP5], the protein stability index runs as follows: (treatment: DMSO) 4.04 ± 0.55; (treatment: MLN4924 1 uM, 8 h) 3.91 ± 0.23. The matching figures for KGNREDSARMSAGLPGPEAARSGD [PLEKHN1]: 5.41 ± 0.39 and 5.39 ± 0.41. In the case of KSEEELAECFRIFDRNADGYIDPE [TNNC2], the protein stability index stood at 4.8 ± 0.52 (treatment: DMSO) and 5.29 ± 0.43 (treatment: MLN4924 1 uM, 8 h). The matching figures for NDLWPTMENLLQATKSHVDKVIMK [DYNC2LI1]: 3.23 ± 0.25 and 3.31 ± 0.32. The matching figures for MDRKTRFIIHGFIDKGDESWVTDM [PNLIPRP1]: 2.48 ± 0.66 and 2.51 ± 0.19.

Take MDGSGEQPRGGVSSRIEQGEWGGR: the protein stability index runs as follows: (treatment: DMSO) 4.58 ± 0.43; (treatment: MLN4924 1 uM, 8 h) 4.58 ± 0.17.

QHYFYDYDCGEDFYRSTAPSEDIW [MYCL]: the protein stability index runs as follows: (treatment: DMSO) 2.63 ± 0.49; (treatment: MLN4924 1 uM, 8 h) 2.59 ± 0.33. Regarding SLLDVAEPGGPGWLPESDCETVTC [SMAD6], the protein stability index reads like this: (treatment: DMSO) 4.63 ± 0.27; (treatment: MLN4924 1 uM, 8 h) 4.74 ± 0.18. The matching figures for CVVCGDKSSGKHYGQFTCEGCKSF [NR2F2]: 4.76 ± 0.4 and 4.99 ± 0.14. The matching figures for RKLRELQLRNCLRILMGELSNHHD [BEX3]: 2.38 ± 0.21 and 2.28 ± 0.19. The matching figures for ITATSLLGTRESDTEVITVEKSSP [BCL2L13]: 4.91 ± 0.19 and 5.01 ± 0.16. As for KDIAGEFKEQLQALIPYVLNPSKL [ATL3], the protein stability index worked out at 2.19 ± 0.11 (treatment: DMSO) and 2.32 ± 0.18 (treatment: MLN4924 1 uM, 8 h). The matching figures for CLECGKSFCHGSSLKRHLKTHTGE [ZNF449]: 4.78 ± 0.16 and 5.273 ± 0.015. The matching figures for VTDEEIESLMKDGDKNNDGRIDFD [TNNC2]: 5.52 ± 0.14 and 5.46 ± 0.3.

For the sequence QILEGELFDFDLEVKPVLEVLVGK [RSPH3], the protein stability index is, setting by setting: (treatment: DMSO) 2.13 ± 0.58; (treatment: MLN4924 1 uM, 8 h) 2.37 ± 0.67. As to YQLELQCCIDWTHVTDPLIGCKKP [SMG5], the protein stability index (treatment: DMSO) came to 2.38 ± 0.45 and the protein stability index (treatment: MLN4924 1 uM, 8 h) came out at 2.1 ± 0.3. The matching figures for DVQLGDIILTATDGLFDNMPDYMI [PPTC7]: 2.58 ± 0.33 and 2.62 ± 0.42. The matching figures for EADASHCIQQILEAVLHCHQMGVV [CAMK2A]: 3.3 ± 0.15 and 2.86 ± 0.71.
